Values belong to the binder of their own block, whether it stands above or below them. Bridge positions count the residues as written; N and C are the ends. Square brackets hold non-standard residues; d marks the D form. Ends that are not written are not given here. Nle = CCCC[C@H](N)C(=O)O
Legend:
[1] = biological target: ANP receptor (on ANP receptor-expressing LLC-PK1 cells); test: cell-based or functional assay
[2] = biological target: MCR1 receptor (on MCR1 receptor-expressing B16-F1 cells) (UniProt Q01727 1-315); test: cell-based or functional assay
Sequence of MCR1 receptor (on MCR1 receptor-expressing B16-F1 cells) (Q01727 whole entry): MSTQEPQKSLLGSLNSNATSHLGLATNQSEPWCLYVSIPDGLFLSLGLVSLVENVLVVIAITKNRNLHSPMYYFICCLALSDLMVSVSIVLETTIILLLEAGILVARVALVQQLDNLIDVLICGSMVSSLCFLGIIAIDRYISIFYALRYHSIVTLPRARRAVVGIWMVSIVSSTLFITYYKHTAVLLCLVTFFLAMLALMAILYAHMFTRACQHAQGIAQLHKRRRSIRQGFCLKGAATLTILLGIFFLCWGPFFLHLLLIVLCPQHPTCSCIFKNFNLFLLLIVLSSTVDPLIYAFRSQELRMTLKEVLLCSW

EC50 on the production of cGMP (LLC-PK1 cells) [1]: 69 nM | EC50 on the production of cAMP (BC16-F1 cells) [2]: 10.4 nM
B1: bifunctional hormone of SEQ ID NO: 33 (peptide)
peptide: Ac-H[dF]RWGKPMCFGGRMDRIGAQSGLGCNSFRY-NH2
modifications: disulfide 9-25
SMILES: CC[C@H](C)[C@@H]1NC(=O)[C@H](CCCNC(=N)N)NC(=O)[C@H](CC(=O)O)NC(=O)[C@H](CCSC)NC(=O)[C@H](CCCNC(=N)N)NC(=O)CNC(=O)CNC(=O)[C@H](Cc2ccccc2)NC(=O)[C@@H](NC(=O)[C@H](CCSC)NC(=O)[C@@H]2CCCN2C(=O)[C@H](CCCCN)NC(=O)CNC(=O)[C@H](Cc2c[nH]c3ccccc23)NC(=O)[C@H](CCCNC(=N)N)NC(=O)[C@@H](Cc2ccccc2)NC(=O)[C@H](Cc2c[nH]cn2)NC(C)=O)CSSC[C@@H](C(=O)N[C@@H](CC(N)=O)C(=O)N[C@@H](CO)C(=O)N[C@@H](Cc2ccccc2)C(=O)N[C@@H](CCCNC(=N)N)C(=O)N[C@@H](Cc2ccc(O)cc2)C(N)=O)NC(=O)CNC(=O)[C@H](CC(C)C)NC(=O)CNC(=O)[C@H](CO)NC(=O)[C@H](CCC(N)=O)NC(=O)[C@H](C)NC(=O)CNC1=O

EC50 on the production of cGMP (LLC-PK1 cells) [1]: 86.8 nM
B2: bifunctional hormone of SEQ ID NO: 43 (peptide)
peptide: Ac-HRWGKPMCFGGRMDRIGAQSGLGCNSFRY-NH2
modifications: disulfide 8-24
SMILES: CC[C@H](C)[C@@H]1NC(=O)[C@H](CCCNC(=N)N)NC(=O)[C@H](CC(=O)O)NC(=O)[C@H](CCSC)NC(=O)[C@H](CCCNC(=N)N)NC(=O)CNC(=O)CNC(=O)[C@H](Cc2ccccc2)NC(=O)[C@@H](NC(=O)[C@H](CCSC)NC(=O)[C@@H]2CCCN2C(=O)[C@H](CCCCN)NC(=O)CNC(=O)[C@H](Cc2c[nH]c3ccccc23)NC(=O)[C@H](CCCNC(=N)N)NC(=O)[C@H](Cc2c[nH]cn2)NC(C)=O)CSSC[C@@H](C(=O)N[C@@H](CC(N)=O)C(=O)N[C@@H](CO)C(=O)N[C@@H](Cc2ccccc2)C(=O)N[C@@H](CCCNC(=N)N)C(=O)N[C@@H](Cc2ccc(O)cc2)C(N)=O)NC(=O)CNC(=O)[C@H](CC(C)C)NC(=O)CNC(=O)[C@H](CO)NC(=O)[C@H](CCC(N)=O)NC(=O)[C@H](C)NC(=O)CNC1=O

EC50 on the production of cAMP (BC16-F1 cells) [2]: 365 nM
B3: bifunctional hormone of SEQ ID NO: 45 (peptide)
peptide: Ac-H[dF]RWSPKMVQGSGCPGRKMDRISSSSGLGCKVLRRH-NH2
modifications: disulfide 14-30
SMILES: CC[C@H](C)[C@@H]1NC(=O)[C@H](CCCNC(=N)N)NC(=O)[C@H](CC(=O)O)NC(=O)[C@H](CCSC)NC(=O)[C@H](CCCCN)NC(=O)[C@H](CCCNC(=N)N)NC(=O)CNC(=O)[C@@H]2CCCN2C(=O)[C@@H](NC(=O)CNC(=O)[C@H](CO)NC(=O)CNC(=O)[C@H](CCC(N)=O)NC(=O)[C@@H](NC(=O)[C@H](CCSC)NC(=O)[C@H](CCCCN)NC(=O)[C@@H]2CCCN2C(=O)[C@H](CO)NC(=O)[C@H](Cc2c[nH]c3ccccc23)NC(=O)[C@H](CCCNC(=N)N)NC(=O)[C@@H](Cc2ccccc2)NC(=O)[C@H](Cc2c[nH]cn2)NC(C)=O)C(C)C)CSSC[C@@H](C(=O)N[C@@H](CCCCN)C(=O)N[C@H](C(=O)N[C@@H](CC(C)C)C(=O)N[C@@H](CCCNC(=N)N)C(=O)N[C@@H](CCCNC(=N)N)C(=O)N[C@@H](Cc2c[nH]cn2)C(N)=O)C(C)C)NC(=O)CNC(=O)[C@H](CC(C)C)NC(=O)CNC(=O)[C@H](CO)NC(=O)[C@H](CO)NC(=O)[C@H](CO)NC(=O)[C@H](CO)NC1=O

EC50 on the production of cAMP (BC16-F1 cells) [2]: 1.2 nM
B4: bifunctional hormone of SEQ ID NO: 44 (peptide)
peptide: Ac-H[dF]RWGKPMCFGGRMGAQSGLGCNSFRY-NH2
modifications: disulfide 9-22
SMILES: CSCC[C@@H]1NC(=O)[C@H](CCCNC(=N)N)NC(=O)CNC(=O)CNC(=O)[C@H](Cc2ccccc2)NC(=O)[C@@H](NC(=O)[C@H](CCSC)NC(=O)[C@@H]2CCCN2C(=O)[C@H](CCCCN)NC(=O)CNC(=O)[C@H](Cc2c[nH]c3ccccc23)NC(=O)[C@H](CCCNC(=N)N)NC(=O)[C@@H](Cc2ccccc2)NC(=O)[C@H](Cc2c[nH]cn2)NC(C)=O)CSSC[C@@H](C(=O)N[C@@H](CC(N)=O)C(=O)N[C@@H](CO)C(=O)N[C@@H](Cc2ccccc2)C(=O)N[C@@H](CCCNC(=N)N)C(=O)N[C@@H](Cc2ccc(O)cc2)C(N)=O)NC(=O)CNC(=O)[C@H](CC(C)C)NC(=O)CNC(=O)[C@H](CO)NC(=O)[C@H](CCC(N)=O)NC(=O)[C@H](C)NC(=O)CNC1=O

EC50 on the production of cGMP (LLC-PK1 cells) [1]: 3.3 nM
Binder: SLRRSSCFGGRMDRIGAQSGLGCNSFRY (disulfide 7-23; also: C-terminal amide in Table IV, not in Table I) [native ANP (SEQ ID NO: 2)]

EC50 on the production of cGMP (LLC-PK1 cells) [1]: 132 nM | EC50 on the production of cAMP (BC16-F1 cells) [2]: 62.5 nM
B5: bifunctional hormone of SEQ ID NO: 34 (peptide)
peptide: Ac-H[dF]RWGKP[Nle]CHFGGR[Nle]DRISCYR-NH2
modifications: disulfide 9-20
SMILES: CCCC[C@@H]1NC(=O)[C@H](CCCNC(=N)N)NC(=O)CNC(=O)CNC(=O)[C@H](Cc2ccccc2)NC(=O)[C@H](Cc2c[nH]cn2)NC(=O)[C@@H](NC(=O)[C@H](CCCC)NC(=O)[C@@H]2CCCN2C(=O)[C@H](CCCCN)NC(=O)CNC(=O)[C@H](Cc2c[nH]c3ccccc23)NC(=O)[C@H](CCCNC(=N)N)NC(=O)[C@@H](Cc2ccccc2)NC(=O)[C@H](Cc2c[nH]cn2)NC(C)=O)CSSC[C@@H](C(=O)N[C@@H](Cc2ccc(O)cc2)C(=O)N[C@@H](CCCNC(=N)N)C(N)=O)NC(=O)[C@H](CO)NC(=O)[C@H]([C@@H](C)CC)NC(=O)[C@H](CCCNC(=N)N)NC(=O)[C@H](CC(=O)O)NC1=O

EC50 on the production of cAMP (BC16-F1 cells) [2]: 28 nM
B6: bifunctional hormone of SEQ ID NO: 46 (peptide)
peptide: Ac-H[dF]RWGPKPVQGSGCPGRKMDRISSSSGLGCKVLRRH-NH2
modifications: disulfide 14-30
SMILES: CC[C@H](C)[C@@H]1NC(=O)[C@H](CCCNC(=N)N)NC(=O)[C@H](CC(=O)O)NC(=O)[C@H](CCSC)NC(=O)[C@H](CCCCN)NC(=O)[C@H](CCCNC(=N)N)NC(=O)CNC(=O)[C@@H]2CCCN2C(=O)[C@@H](NC(=O)CNC(=O)[C@H](CO)NC(=O)CNC(=O)[C@H](CCC(N)=O)NC(=O)[C@@H](NC(=O)[C@@H]2CCCN2C(=O)[C@H](CCCCN)NC(=O)[C@@H]2CCCN2C(=O)CNC(=O)[C@H](Cc2c[nH]c3ccccc23)NC(=O)[C@H](CCCNC(=N)N)NC(=O)[C@@H](Cc2ccccc2)NC(=O)[C@H](Cc2c[nH]cn2)NC(C)=O)C(C)C)CSSC[C@@H](C(=O)N[C@@H](CCCCN)C(=O)N[C@H](C(=O)N[C@@H](CC(C)C)C(=O)N[C@@H](CCCNC(=N)N)C(=O)N[C@@H](CCCNC(=N)N)C(=O)N[C@@H](Cc2c[nH]cn2)C(N)=O)C(C)C)NC(=O)CNC(=O)[C@H](CC(C)C)NC(=O)CNC(=O)[C@H](CO)NC(=O)[C@H](CO)NC(=O)[C@H](CO)NC(=O)[C@H](CO)NC1=O

EC50 on the production of cGMP (LLC-PK1 cells) [1]: 216 nM | EC50 on the production of cAMP (BC16-F1 cells) [2]: 31.4 nM
B7: bifunctional hormone of SEQ ID NO: 35 (peptide)
peptide: Ac-H[dF]RWGKP[Nle]CFGGR[Nle]DRIGAQSGLGCNSFRY-NH2
modifications: disulfide 9-25
SMILES: CCCC[C@@H]1NC(=O)[C@H](CCCNC(=N)N)NC(=O)CNC(=O)CNC(=O)[C@H](Cc2ccccc2)NC(=O)[C@@H](NC(=O)[C@H](CCCC)NC(=O)[C@@H]2CCCN2C(=O)[C@H](CCCCN)NC(=O)CNC(=O)[C@H](Cc2c[nH]c3ccccc23)NC(=O)[C@H](CCCNC(=N)N)NC(=O)[C@@H](Cc2ccccc2)NC(=O)[C@H](Cc2c[nH]cn2)NC(C)=O)CSSC[C@@H](C(=O)N[C@@H](CC(N)=O)C(=O)N[C@@H](CO)C(=O)N[C@@H](Cc2ccccc2)C(=O)N[C@@H](CCCNC(=N)N)C(=O)N[C@@H](Cc2ccc(O)cc2)C(N)=O)NC(=O)CNC(=O)[C@H](CC(C)C)NC(=O)CNC(=O)[C@H](CO)NC(=O)[C@H](CCC(N)=O)NC(=O)[C@H](C)NC(=O)CNC(=O)[C@H]([C@@H](C)CC)NC(=O)[C@H](CCCNC(=N)N)NC(=O)[C@H](CC(=O)O)NC1=O

EC50 on the production of cGMP (LLC-PK1 cells) [1]: 8.9 nM
B8: bifunctional hormone of SEQ ID NO: 41 (peptide)
peptide: Ac-EHFRWGRRSSCFGGRMDRIGAQSGLGCNSFRY-NH2
modifications: disulfide 11-27
SMILES: CC[C@H](C)[C@@H]1NC(=O)[C@H](CCCNC(=N)N)NC(=O)[C@H](CC(=O)O)NC(=O)[C@H](CCSC)NC(=O)[C@H](CCCNC(=N)N)NC(=O)CNC(=O)CNC(=O)[C@H](Cc2ccccc2)NC(=O)[C@@H](NC(=O)[C@H](CO)NC(=O)[C@H](CO)NC(=O)[C@H](CCCNC(=N)N)NC(=O)[C@H](CCCNC(=N)N)NC(=O)CNC(=O)[C@H](Cc2c[nH]c3ccccc23)NC(=O)[C@H](CCCNC(=N)N)NC(=O)[C@H](Cc2ccccc2)NC(=O)[C@H](Cc2c[nH]cn2)NC(=O)[C@H](CCC(=O)O)NC(C)=O)CSSC[C@@H](C(=O)N[C@@H](CC(N)=O)C(=O)N[C@@H](CO)C(=O)N[C@@H](Cc2ccccc2)C(=O)N[C@@H](CCCNC(=N)N)C(=O)N[C@@H](Cc2ccc(O)cc2)C(N)=O)NC(=O)CNC(=O)[C@H](CC(C)C)NC(=O)CNC(=O)[C@H](CO)NC(=O)[C@H](CCC(N)=O)NC(=O)[C@H](C)NC(=O)CNC1=O

EC50 on the production of cGMP (LLC-PK1 cells) [1]: 1430 nM
B9: bifunctional hormone of SEQ ID NO: 29 (peptide)
peptide: [Nle]EHFGGR[Nle]DRISKYRH[dF]RW-NH2
modifications: lactam 2-13; N-terminus assumed
SMILES: CCCC[C@@H]1NC(=O)[C@H](CCCNC(=N)N)NC(=O)CNC(=O)CNC(=O)[C@H](Cc2ccccc2)NC(=O)[C@H](Cc2c[nH]cn2)NC(=O)[C@@H](NC(=O)[C@@H](N)CCCC)CCC(=O)NCCCC[C@@H](C(=O)N[C@@H](Cc2ccc(O)cc2)C(=O)N[C@@H](CCCNC(=N)N)C(=O)N[C@@H](Cc2c[nH]cn2)C(=O)N[C@H](Cc2ccccc2)C(=O)N[C@@H](CCCNC(=N)N)C(=O)N[C@@H](Cc2c[nH]c3ccccc23)C(N)=O)NC(=O)[C@H](CO)NC(=O)[C@H]([C@@H](C)CC)NC(=O)[C@H](CCCNC(=N)N)NC(=O)[C@H](CC(=O)O)NC1=O

Source: patent US20090011997A1 (THERATECHNOLOGIES, published 2009)
